Measured values taken from US20230407326A1, “INDUCIBLE PROMOTER FOR VIRAL VECTOR PRODUCTION” (ASKLEPIOS BIOPHARMACEUTICAL, INC., priority 2020, published 2023).

Assays:
CHO-GS cells = assay: Luciferase expression in transiently transfected CHO-GS suspension cells, normoxia vs 24 hrs hypoxia; assay type: cell-based, Chinese hamster; conditions: CHO_GS suspension cell line
Description: 40 ml of cells were grown in a 250 ml vented Erlenmeyer flask (Sigma-Aldrich CLS431144) at 37° C., 20% O2, 8% CO2 with agitation at 100 rpm. Cells were seeded as at 300,000 cells/ml.
(§1) One day before transfection, the cells were counted using a haemocytometer and split to 500,000 cells/ml.
(§2) On the day of transfection, the cells are seeded to 1,000,000 cells/ml in 500 μl of appropriate medium (Thermofisher, CD-CHO 10743029) in a 24 well plate. 0.625 μg of DNA per well was then added to 10 μl of OptiMem medium (Thermofisher; 11058021) and incubated for 5 minutes at room temperature.
Concurrently, 0.625 μl of Freestyle Max reagent (Thermofisher, 16447100) was made up to 10 μl by addition of OptiMem and incubated for 5 minutes at room temperature. After this incubation, both mixes were added to the same tube and incubated at room temperature for 25-30 minutes. The DNA/Max reagent mix (20 μl/well) was then added directly to the cells and the cells incubated at 37° C., 8% CO2 with agitation at 100 rpm. […]
After transfection the cells were incubated for 24 hrs in normoxic conditions (20% oxygen). Induction of the promoters was assessed by using luciferase activity after 24 hrs in normoxia or hypoxia (5% oxygen, 10% carbon dioxide and 85% nitrogen). […] Luciferase activity was measured as described above.

HEK293-F cells = assay: Luciferase expression from hypoxia-inducible promoters in transiently transfected HEK293-F cells under hypoxia; assay type: cell-based, human; conditions: hypoxia 5% oxygen, 3, 5 and 24 hrs
Description: 40 ml of cells were grown in a 250 ml vented Erlenmeyer flask (Sigma-Aldrich CLS431144) at 37° C., 20% O2, 8% CO2 with agitation at 100 rpm. Cells were seeded as described in the manufacturer's instructions (300,000 cells/ml). HEK293-F were obtained from Thermofisher, R79007.
as §1
as §2, with “(Freestyle 293 expression medium, 12338002)” for “(Thermofisher, CD-CHO 10743029)”, “temperature. […]” for “temperature.”
After transfection the cells were incubated for 24 hrs in normoxia conditions (20% oxygen) before being switched to a gas mix of 5% oxygen, 10% carbon dioxide and 85% nitrogen (hypoxia). […] Induction of the promoters was assessed by using luciferase activity after 3, 5 and 24 hrs in hypoxia.
(§3) Luciferase activity was measured using LARII (Dual Luciferase Reporter 1000 assay system, Promega, E1980).
Media was removed from the cells at the respective time point (0, 3, 5, 24 hrs after induction). […] 10 μl of supernatant was pipetted into white 96-well plate and luminescence measured by addition of 50 μl of LARII substrate. […]

HEK293-T cells = assay: Luciferase expression in transiently transfected HEK293-T cells, normoxia vs 24 hrs hypoxia; assay type: cell-based, human
Description: HEK293-T are seeded at a density of 20%. Once they reached a confluence between 60 and 80%, the media is changed with DMEM (#21885-025—Thermo Scientific) supplemented with 10% FBS (Gibco, 26140). After 3 hours, the cells were transfected by a transfection mix. The transfection mix is prepared by adding DNA (2 μg per 6 well plate) and PEI 25 kDA (#23966-1-Polyscience) in a ratio of 1:3 in sterile DPBS (#14190169—ThermoFisher Scientific). After mixing, the transfection mix is incubated at room temperature for 30 minutes and then added directly to the cells. After 16 to 18 h post transfection, the media is changed to DMEM+2% FBS. […]
After transfection the cells were incubated for 24 hrs in normoxic conditions (20% oxygen). Induction of the promoters was assessed by using luciferase activity after 24 hrs in normoxia or hypoxia (5% oxygen, 10% carbon dioxide and 85% nitrogen). […]
as §3
Media was removed from the cells at the respective time point (0, 3, 5, 24 hrs after induction). […] 10 μl of supernatant was pipetted into white 96-well plate and luminescence measured by addition of 50 μl of LARII substrate.
β-galactosidase activity was measured as per manufacturer's instructions (Mammalian βGalactosidase Assay Kit, 75707/75710, Thermo Scientific) using 25 μl of lysate. […]

B1: RTV-015: synthetic hypoxia-inducible promoter, five HRE1 and synthetic minimal promoter MP1, SEQ ID NO: 1 (nucleic acid)
DNA: ACGTGCGATGATGCGTAGCTAGTAGTGATGATGCGTAGCTAGTAGTACGTGCGATGATGCGTAGCTAGTAGTGATGATGCGTAGCTAGTAGTACGTGCGATGATGCGTAGCTAGTAGTGATGATGCGTAGCTAGTAGTACGTGCGATGATGCGTAGCTAGTAGTGATGATGCGTAGCTAGTAGTACGTGCTTGGTACCATCCGGGCCGGCCGCTTAAGCGACGCCTATAAAAAATAGGTTGCATGCTAGGCCTAGCGCTGCCAGTCCATCTTCGCTAGCCTGTGCTGCGTCAGTCCAGCGCTGCGCTGCGTAACGGCCGCC
- luciferase expression in normoxia and after 24 hours in hypoxia (CHO-GS cells): almost no luciferase activity in normoxia but is induced after 24 hours in hypoxia
- promoter activity (luciferase) relative to the other promoters (HEK293-F cells): weakest
- luciferase expression in normoxia and after 24 hours in hypoxia (HEK293-T cells): almost no luciferase activity in normoxia but is induced after 24 hours in hypoxia
